Test: soluble on expression in E. coli; label from the status in PepcDB or PDB records
With “MESLTLQPIARVDGAINLPGSKSVSNRALLLAALACGKTALTNLLDSDDVRHMLNALSALGINYTLSADRTRCDITGNGGALRAPGALELFLGNAGTAMRPLAAALCLGQNEIVLTGEPRMKERPIGHLVDSLRQGGANIDYLEQENYPPLRLRGGFTGGDIEVDGSVSSQFLTALLMTAPLAPKDTIIRVKGELVSKPYIDITLNLMKTFGVEIANHHYQQFVVKGGQQYHSPGRYLVEGDASSASYFLAAGAIKGGTVKVTGIGRKSMQGDIRFADVLEKMGATITWGDDFIACTRGELHAIDMDMNHIPDAAMTIATTALFAKGTTTLRNIYNWRVKETDRLFAMATELRKVGAEVEEGHDYIRITPPAKLQHADIGTYNDHRMAMCFSLVALSDTPVTILDPKCTAKTFPDYFEQLARMSTPA” the “soluble on expression in E. coli” value was “not soluble”. For “MESSKKTSRSRSTTQEAVRDIKKYIRDNRLRTGDLLPSEAFLCEELGCSRSAIREAIRALVTLDIVEVRHGYGTFVSRMSLEPLINGMVFRTVLDNDTSVENLFYVVDTREILDLSLGEELIEVFTDDDRELLLDLVDKMREHNDQGESFVVEDQKFHRALLARTKNPLIRELNDAFWQIQTEAQPMLNLAMPADIDETIKAHSDIVEALSSGNIDDYRSAVLAHYAPFRRMISNMLDAH”, the “soluble on expression in E. coli” value was “not soluble”. With “METFYRTHSYLVEHTNAPVRRDLMDEIDWNDRLIGIKGTRGVGKTTFLLQYAKEKFGTDHSCLFINMNNFYFSKYTLVEFAAEFVKRGGKVLLIDQVFKYPEWSHDLRACYEMFPTLKIIFTGSSVMRLKEENPELSGIAKVYYLRGFSFREYLNLQSGNCFRAYTLQEILENHEQIAKTILRNVKPLDYFQDYLHHGFYPFFLEKRNFSENLLKTMNMMIEVDILLIKQIELKYLSKIKKLLYLLAVDGPVAPNVSQLATEIQTSRATVMNYIKYLADARLINMVYPKGEEFPKKPSKLMMHNTNLMYSIYPVKVEEQDVLDTFFMNTLYKDHKLYKGDKGTSFMVDNGLHFRICAEGCKFKNNPNVYYALHKLELGHGNMIPLWLFGFLY” the “soluble on expression in E. coli” value was “not soluble”. For “METIKALEKFMEFDRLQKDCSDKLDRERERRMKAEREIARKNCGGNPCERELKSERSNVKRLEYQLDAEKEKVKFYKRELERDRYLSSRYLTSSSDPHEKPLPNYTFPRIKNVSPLTTEATGSVEVAPPSTDVTEPISDVTPSVDVEPEHPPAF”, the “soluble on expression in E. coli” value was “not soluble”. For “METKPSQGLYPLHRCKTIHLVRHAQGIHNVEGEKNHKAYLSEDLFDAHLTPLGWQQVDNLHKHVNASGISNRIELVVVSPLLRTLQTAVGTFGGEGYKDGVNTPLLMTAGAGNSDRPAISRLNRPPFIAVESCREHLGVHPCDRRSNITKYRELFPAIDFSLIETDEDVLWKPDIREEDKDIATRGVKFFNWLSTRKEKEIAVVTHSGFLYQTLNSFGNDCDPSVKNEISKKFVNCELRSFVLVDKCMSSSDPPMTNYPGTILTGEDASSDIADQK”, the “soluble on expression in E. coli” value was “soluble”. With “METKYLRINPADNVAVAIVNLPAGEHLSVDGIEITLNEDIPAGHKFALKDFAEGENVIKYGYPIGHARMAKKQGDWMNETNIKTNLAGLLEYTYHPTQVTLDIPHKNLTFKGYRRKNGDVGVRNEIWIIPTVGCVNGIIGQLAEGLRRETEGKGVDAIVAFPHNYGCSQLGDDHENTKKILRDMVLHPNAGAVLIVGLGCENNQPDVFREFLGDYDQDRVKFMVTQKVGDEYEEGMDILRDLYAKASKDERTEVPLSELRVGLKCGGSDGFSGITANPLLGMFSDFLIAQGGTSVLTEVPEMFGAETILMNRCENKDLFEQTVHLINDFKEYFLSHGEPVGENPSPGNKAGGISTLEEKALGCTQKCGKSYVSGVMPYGERLQKKGLNLLSAPGNDLVAATTLAASGCHMVLFTTGRGTPFGTFVPTMKISTNSTLAKNKPGWIDFNAGVIVENEPMEKTCERFIEYVIKVASGEFVNNEKKGYREIAIFKTGVTL” the “soluble on expression in E. coli” value was “not soluble”. With “METLSNIQCFVRSAEAGSFAEAARRLGLTPAGVGKNVARLESNLGVRLFQRSTRRLTLTEAGERFLQEVGGSLEGIQTALANVSSVGNQPSGTLKVSMGLAFGRDYILPLLGEFLERYPDIVPDWHFDNRQVDLIGEGFDAAIGGGFELPPGVVARNLTPGHLILLASPTYLRDKPPIRHPGDLGGFDGIRIRSPQTGRVRSWPLRRRNGEEAPIELRERMTMSDPEATCEVAAMGLGITLVCMQHAYAYLESGALVRVLPDWYVDAGNTSLYYAANKLLPAKTRVFVDFVVDYFRRQDLARRFSAFPTG” the “soluble on expression in E. coli” value was “not soluble”. For “METQKQTRRRGEKLENTILTAAWDQLNKVGYKDLTITEIASLAGTNKTTIYRRWPNKSLLVVSAFSKFVPRPKMHIPNSGNLRDDLVKLFEQLVNQLEFLTSGKFEGLLLDRLRDTSIDKVFGRVDENNALQKFIVIILQRAEKRGELKINQLSQRVLELPFLLLLNEVISTRGIVPKESLTEIVDKILLPVFLRSN”, the “soluble on expression in E. coli” value was “not soluble”. In the case of “METRRAERINKLIQALKRSDKIHLKDAANLLRVSEMTIRRDLSAEPTSVILLGGYVVMDPKSNNANNYFVSDQQAKQVEEKRRIGQLAAQLIIENDTVFFDCGTTIPWIIDEIDEELAFTAICYSLNTFLALQDKPNCKVILCGGEFKPNNCIFTPLSQQSELDNICPNKAFISAAGVSIEYGATCFNFDEILLKHRAMAKSQYKILVADHSKFGKIKPASIGTLAQFDALVTDRPPVAEFYLFFSQHSVKIYC”, the “soluble on expression in E. coli” value is reported as “not soluble”. In the case of “MEVIKITPRGYCYGVVDAMVIARNAALDPSLPRPIYILGMIVHNKHVTDAFAEEGIITLDGENRLEILEKIDHGTVIFTAHGVSPEVKKRALEKGLVTIDATCPDVTKTHRLIEQKLADGYDIIYIGKKGHPEPEGAVGINPERIHLVETIDDVERLSIHNERIMVTNQTTMSQWDVADIMAKVKEKYPHVEMHKEICLATQLRQEAVAEQAKEADVTIVVGDPRSNNSNRLAQVSEEIAGTKAYRVADVTEIDINWIKDAKKVAVTAGASTPTPITKEVIDFLEQFDPNDPSTWKRERKVPLQKILPKVKTKKEE”, the “soluble on expression in E. coli” value is reported as “not soluble”. In the case of “MEVKIEETDWDEGVPGISFLKDAFSREEISPPKDDKNRKKEEVRMKLESGEYSVVYRCPTFDEILNENGQKIDLVQCKNCFGFLSARTGGHMKNHKNQRCKPLNGPPEKKPKLDPQVVGNLQNHILDFVTESGVSLNIAESEKFRIFIISMIITGNPNVNVDEHQFLSGEWIRKTMKEKSCQYLDNIGAELKDPVSKGDACLILDYGRQLDDTFSIFVSYTNRSSGYFSLRVIPLAFTPLFEKKITEKTLDYILHATDRVGLPKEHVLKLKVVAEGATNMLKLGEYFDNCNLFTVCLSFSSKMCRKSFRSTETVEKFDNFIRKITCESDRKRNRNLWNDFLQTPALQSLINIYVLSLILLCFQLTEQLSRTPAQSRANEWLASYHCARDILHVFPQIADLKDDRIEPLVDELRQCKGVLEDCFEIFSLFENPLKLLEQPEQQIQNVAGCLAAVAKMAKLSIAHYTKITVTDVHLICAFLSPDSKNLKNFPAPKKNKAYRIVNTLMKDVVVPPPSLSQPILSPLLMAIKNDPSPIPTVSQEFNDYVQLVVSSKDATLAPLEFWAKYQERFPRMSEIAAKNFCVMSSPGVCGPSFIVLRSLFRVDRHSKFPDTTELMMISYLMANELK”, the “soluble on expression in E. coli” value is reported as “not soluble”. In the case of “MEWKTVVKPHTERINVKRSEFYATIFPVKDEKDFREKLKEVSKRDATHNCWAYRIFSPNGILEHSSDDGEPSGTAGRPILGALKKYDLMNTAIVVTRYFGGVKLGVRGLIEAYSSAAEMAVKGAELRKLRLMKEFEVEVDYQELNNVFRVVEMMGLELVEMDYTERGAKILLRGLEVPENLVIKTIRDVLI”, the “soluble on expression in E. coli” value is reported as “soluble”. In the case of “MFAFSKGPAGSSTYDRVAQKFQDGYEKMRAAIEMDELTKHAGSIQEKLRTAELYKEARSLLKEANEFNIMDIPETRRSEIRDKRQNMMKLEKSAQDRLIAICNEVDPNVKQSRSATVGPSRPASAARVTPRPTRATAPASLPMHQNPVNRAALLNGVDKVIGERLLDEVLDNTGVRMDDVAGCHSAKAALEEAVILPALNPNLFKGLRQPVKGILLFGPPGNGKTLLAKAVAGESKQMFFNISASSLTSKWVGDSEKTIRGLFQIARNAQPSIIFIDEIDSILCERSEKDAEVSRRMKTEFLVQFDGATSSADDRILVIGATNRPHELDDAVLRRFPKRIMLNLPDEEARKELITKTLKKHNMMDGLISSDIRYIASNTSGFSNSDLVALCKEAAMVPIREIDRSKLSMTDGEKIRKIRASDFDTALRTIRPSTSQKIMSKLSDFSRSFGC”, the “soluble on expression in E. coli” value is reported as “not soluble”. With “MFDPKQFDELANKLFATLPTSLQNFEKDIQQKFKEVLQSTFSRMDLVTREEFDVQCKVLARTREKLEQLQHQLEDFIKRQEVKNNK” the “soluble on expression in E. coli” value was “not soluble”. In the case of “MFEKGYVDENYIRVPKDRLFSFIVRVLTKLGVPEEDAKIVADNLVMADLRGVESHGVQRLKRYVDGIISGGVNLHPKIRVIREGPSYALIDGDEGLGQVVGYRSMKLAIKKAKDTGIGIVIARNSNHYGIAGYYALMAAEEGMIGISMTNSRPLVAPTGGIERILGTNPIALAAPTKDKPFLLDMATSVVPIGKLEVYRRKGKDIPEGWAINREGNITTKVEEVFNGGALLPLGGFGELLGGHKGYGLSLMVDILSGILSGGTWSKYVKNTSEKGSNVCHFFMVIDIEHFIPLEEFKEKISQMIEEIKSSRKHPEFERIWIHGEKGFLTMETRLKLGIPIYRKVLEELNEIAKRVGVEGL”, the “soluble on expression in E. coli” value is reported as “soluble”. With “MFERVREDIQSVFHRDPAARNALEVLTCYPGLHAVWLHRLAHGLWTSGWKWLARLVSNFGRWMTGIEIHPGARIGRRFFIDHGMGIVIGETAEIGDDVTLYQGVTLGGTTWNKGKRHPTLGNNVVVGAGAKVLGPFTVGEGAKVGSNAVVTKEVPPGATVVGIPGRIIMREDSEQQAKRQAMAEKLGFDAYGVSQDMPDPVARAIGQLLDHLQAVDGRLEGMCQALTALGSDYCAKDLPVLREEDFAGVKDEDGNPAALEHHHHHH” the “soluble on expression in E. coli” value was “soluble”. In the case of “MFFIHKLFPAKLIRRYKRFLADVKREDQHIFTVSVPNTGSMLGLTTPNSNIWLSYHNNPKRRYAYQLEIVEANNTLVGINTTLPNKLALEAIQNNLLPELNGYKTILKEQRYGIQSRIDFLLRDDILPDCYLEIKNVHFIRQKGLAEFPDTETKRGTRHLEELIKIVQQGKRAVMLYIIQREDCSAFTICRDLDPTYGRKFDLALESGVEFYAIKCQVSVEGIFPIQQVKIENRK”, the “soluble on expression in E. coli” value is reported as “not soluble”. In the case of “MFGFGGFTRDLGIDLGTANTLVYVKGKGVVLREPSVVALQTDTKQIVAVGSDAKQMIGRTPGNVVALRPMKDGVIADYETTATMMKYYIQQAQKSNGFFSRKPYVMVCVPSGITAVERRAVIDATRQAGARDAYPIEEPFAAAIGANLPVWEPTGSMVVDIGGGTTEVAIISLGGIVTSQSVRVAGDDMDDSIIQYIKKSYNLMIGERTAEALKLEIGSAGEPEGIEPMEIRGRDLVSGLPKTVLIQPEEIADALKDTVDAIVESVKNTLEKTPPELAADIMDRGIVLTGGGALLRNLDKVISEETNMPVLVAEDPLDCVAIGTGKALDNIDLFKTAAR”, the “soluble on expression in E. coli” value is reported as “not soluble”. In the case of “MFIGGAIISFLFLFGYMWKEAHSNRIRHVTLSFPHFPDNGPPLTIFFISDIHRRSVSCRMLETVKGKADLVVIGGDLAEKGVPAARVRENVRRLQTVAPVYFVWGNNDDEVDYDLQSLLEEERVYVLKNKAEVWEHGGVPIALIGVGDVSRKEADIARALEHVPPESFRILACHNPAIIARLEDEQHISLVLSGHTHGGQIRLFSFGLYEKGGLKWHGNTALFTSNGYGTTGVPLRLGAPAETHLIKIVPGKLATEKLEHHHHHH”, the “soluble on expression in E. coli” value is reported as “soluble”. For “MFKFHLITKDGKARRGRIYTPHGVIETPVFMPVGTQGTVKAMLHKLLDEIGTQIILGNTYHLYLRPGTEIIKKAGGLHRFISWNKPILTDSGGYQVFSLAKGKFGNRKAKVKVSDEGVEFQDHLQGDKHFFTPEKVVEIQEIFGSDIMMPLDECVEYPVDKNYAEKALKRTINWLERSIKAKKREDQVLFGIVQGAFWKDLRKKAVEETLKFDEFLFGYSIGGLSVGEPKEIMYGMTEVVCELLPEKKPRYLMGVGKPEDILEAVERGVDMFDCVVPTRNARTGTLYTSQGVVDIRHSKWKEDFSPLDPECDCYTCRNFSKAYLRHLFVAEEISAYVLNTIHNLRFYLKMMEEVRKAIEEKRFKELKEKYLQRVKNKL”, the “soluble on expression in E. coli” value was “soluble”.

Source: the DeepSol protein solubility set
